Results on 1 molecule are retold here after patent EP4549938A1.

The assay addresses No. 1 APOA2-like protein (vasculitis-associated apolipoprotein A2, VAP2) (human). Nature of the assay: Western blot band score with VasSF, COVID-19 patient sera at hospital admission (Fig. 4). For orientation: A western blot detects proteins with antibodies after separation by electrophoresis.

B1: VasSF, single chain variable region fragment (ScFv) (scFv, V domains shown)
VH: QVHLVESGGGLVQPGRSLRLSCAVSGFTFASYAMHWVRQAPGKGLEWVAGISKDGSNKRHADSLEGRFTISRDNSKNTLYLQVSGLRAEDTAVYYCARSQDPTDFDWLLSEHWGQGTLVTVSS
With B1, the signal score is 4 /2 µL serum.
